Measurements reported in article PMC8431773, “Novel Cold-Adapted Recombinant Laccase KbLcc1 from Kabatiella bupleuri G3 IBMiP as a Green Catalyst in Biotransformation” (International Journal of Molecular Sciences, 2021).

Tests used:
Assay in all cases: purified protein
purified protein [1] = substrate: COc1ccccc1O; settings: pH 5.5, 30 °C, 2.5-20.0 mM substrate
purified protein [2] = substrate: CCn1c(=NN=c2sc3cc(S(=O)(=O)O)ccc3n2CC)sc2cc(S(=O)(=O)O)ccc21; format: biochemical, Aureobasidium bupleuri; settings: pH 3.5, 30 °C, 0.2-4.0 mM substrate
purified protein [3] = substrate: COc1cc(/C=C/C(=O)O)cc(OC)c1O; format: biochemical, Aureobasidium bupleuri; settings: pH 6.5 (abstract prints optimum pH 6.0), 30 °C, 3.0-150 µM substrate
purified protein [4] = substrate: COc1cc(C=NN=Cc2cc(OC)c(O)c(OC)c2)cc(OC)c1O; format: biochemical, Aureobasidium bupleuri; settings: pH 7.0, 30 °C, 5.5-40.0 µM substrate

B1: KbLcc1 (Aureobasidium bupleuri) (protein)
chain: MHLQKLSGLCLLAFASVSWADAVPGDRYLWGADRMGKMVRRATTTSKASSTTAKASTSSVKTSSVSSASSKSSSNIVASVSSSPPASSASSASSTSSLVADAACTHGPNSRACWGNGYSIKTDFDLKHPTTGNTVTYNLEITNTTCNPDGNGDMPCYLINNQFPGPTIVADWGDKVIINVKNSLQNNGTSLHWHGVRQLSSVGSDGVGGITECPIAPGQSRTYSFLATQFGTSWYHSHYSSQYGMGVVGQVVINGPSSSNYDIDLGTFPITDLYYGLANNVNEMTLHNLQNNLPPPDGSNILVNGKGKSAKGGSYSQMSLTKGKKHRLRLINTSVDNAVRVKLDGHSFTVMSADFIPIKPLTNQGWILLAVGQRYDVVFTANQTPGNYFFRAEVATDCFSGNTGKGRALFTYSEVTAAEPTDSNEVAPTNGCTELNTVPYWTQAVDQSQYAAQVKTLKTGVAPGLTTNGQNFALWNLDTRAMMVRWDRPTIQYVFEGNTSYPDPYAVIEIPTEGTWTYWLIQMGPQNPPLPHPIHLHGHDFFVLGSGAGTFDATTAVLNFANPPRRDTSILPGLGWLLISFPANNPGIWLMHCHIAWHISEGLGVQFIEAKNSIAMPDKTTFNAECDSWRTYSKNMAWPQIDSGL
notes: full ORF of 649 residues (1938 bp, intron removed) cloned from its own ATG behind alpha-factor secretion signal (pPINKalpha-HF); tag not given; secreted from Pichia pastoris (PichiaPink strain 1)
Protein B1 has a Km (purified protein [1]) of 13280 µM, a Vmax (purified protein [1]) of 4.7 µmol/min/mg and a kcat (purified protein [1]) of 5.45 s⁻¹. It also gave a kcat/Km (purified protein [1]) of 410 M⁻¹ s⁻¹, a Km (purified protein [2]) of 580 µM and a Vmax (purified protein [2]) of 34.2 µmol/min/mg. For the same protein, the kcat (purified protein [2]) was 39.6 s⁻¹, the kcat/Km (purified protein [2]) was 68400 M⁻¹ s⁻¹ and the Km (purified protein [3]) was 15 µM. The Vmax (purified protein [3]) was 1.39 µmol/min/mg, the kcat (purified protein [3]) was 1.61 s⁻¹ and the kcat/Km (purified protein [3]) was 109000 M⁻¹ s⁻¹. For the same protein, the Km (purified protein [4]) was 21 µM, the Vmax (purified protein [4]) was 33 µmol/min/mg and the kcat (purified protein [4]) was 38.3 s⁻¹. It also gave a kcat/Km (purified protein [4]) of 1.81e+06 M⁻¹ s⁻¹.
